{"source": "patent US20120317681A1", "key": {"[1]": {"molecular_target": "Cry1Ca receptor protein(s) / binding site on Brush Border Membrane Vesicles (BBMV's) from Spodoptera frugiperda (Spodoptera frugiperda)", "assay": "homologous competition; displacement of 0.5 nM 125I-labeled Cry1Ca core toxin from S. frugiperda BBMV (150 ug/mL)"}, "[2]": {"molecular_target": "Cry1Ca receptor protein(s) / binding site on Brush Border Membrane Vesicles (BBMV's) from Spodoptera frugiperda (Spodoptera frugiperda)", "assay": "heterologous competition; displacement of 0.5 nM 125I-labeled Cry1Ca core toxin from S. frugiperda BBMV (150 ug/mL)"}}}
{"substance": "Cry1Ca core toxin protein (non-radiolabeled, trypsin-activated) (from UniProt P0A376 28-618) (ligand)", "values": [{"measurement": "IC50", "setting": "[1]", "result": 5, "unit": "nM"}]}
{"substance": "Cry1Fa core toxin protein (non-labeled, trypsin-activated) (from UniProt Q03746 28-605) (ligand)", "values": [{"measurement": "IC50", "setting": "[2]", "result": "> 300", "unit": "nM"}]}
